Source: patent US20240398899A1 (priority 2021, published 2024)

What was measured:
Assay type in all cases: cell-based, human
SH-SY5Y neuronal cells = assay: Sub (G0/G1) cell population by PI cell cycle assay against MPP+ iodide damage; conditions: MPP + Iodide (2 mM); for % Decrease in Apoptotic cells (wrt MPP + iodide): SubG0/G1
Description: After incubation as in Example 2a and 2b, cells were harvested by trypsinization and processed for Cell cycle assay as follows: Cell cycle reagent contains PI stain, which stains DNA of cells in different phases of cell cycle; Sub (G0/G1), G1, S, G2 and M. Cells in Sub (G0/G1) phase correspond to apoptotic cells.
Cells were gently harvested into pre-labelled centrifuge tubes and centrifuged at 450 g for 5 min, RT (low brake). The supernatants were removed carefully and discarded. 1 ml of 1×PBS was added to the pellet and resuspended gently to make homogenous suspension. Cells were centrifuged at 450 g for 5 min, RT (low brake). The supernatant was carefully removed leaving behind approximately 100 μl of PBS. Cells were resuspended gently yet thoroughly in residual PBS. The cells were fixed by adding Ice-cold 70% ethanol (100 μl) added dropwise into cells in each tube while vortexing at low speed Cells were stored at 4° C. for 24 h prior to staining.
Ethanol fixed cells were centrifuged at 450 g for 5 min, RT (low brake) the supernatant was carefully removed (not to touch the pellet) and discarded. 1 ml of 1×PBS was added into pellet and resuspended gently. Cells were incubated for 1 minute at RT. Cells were centrifuged at 450 g for 5 min, RT (low brake). (washing step) The supernatant was removed carefully leaving behind approx. 20 μl-50 μl of PBS. 200 μl of Cell Cycle reagent was added into each tube. Cells were resuspended gently and mixed. Cells were incubated for 30 min, RT, Dark. The stained samples were transferred into 96-well plates and acquired on flow cytometer (Guava technologies). Percentage of cells in Sub (G0/G1) phase were determined.
Percent inhibition in apoptotic cells=[(% Sub(G0/G1)cells in MPP+iodide alone) −(% Sub(G0/G1)cells in SEQ ID NO:1+MPP+iodide)/% Sub(G0/G1)cells in MPP+iodide alone]*100

Calbindin D = assay: Parkinson biomarker multiplex analysis/ELISA, MPP+ damaged SH-SY5Y; conditions: MPP + Iodide (2 mM)
Description: (§1) After overnight incubation as in the previous examples, cells were treated with recombinant lectin protein having SEQ ID NO: 1 at different concentrations ranging from 0.001 μg/ml-1 μg/ml for 24 h for Parkinson disease and 0.01 μg/ml-25 μg/ml for 24 h for Alzheimer's disease. • Parkinson Disease: After 24 h of pre-treatment with recombinant lectin protein having SEQ ID NO: 1, cells were exposed (MPP+) for another 24 h. Cells treated with MPP+Iodide were included as Control. […] The cells treated with Galantamine were included as positive Control.
(§2) The levels of markers were determined by multiplex analysis as: Cell culture supernatants were diluted (1:2) with Calibrator Diluent. 50 μl of standard or sample was added per well. 50 μl of the microparticle cocktail was added to each well of the microplate and covered with a foil plate sealer. The plate was incubated for 2 hours at room temperature on a horizontal orbital microplate shaker. The plate was washed using a magnetic device designed to accommodate a microplate. Washing was done by applying the magnet to the bottom of the microplate, allowing 1 minute before removing the liquid, filling each well with wash buffer (100 μl) and allowing 1 minute before removing the liquid again. 50 μl of diluted Biotin-Antibody Cocktail was added to each well. Covered the plate with a foil plate sealer and incubated for 1 hour at room temperature on the shaker. Repeated the wash step. 50 μl of diluted Streptavidin-PE was added to each well. The plate was securely covered with a foil plate sealer and incubated for 30 minutes at room temperature on the shaker. Repeated the wash step. The microparticles were resuspended by adding 100 μl of Wash Buffer to each well. The plate was incubated for 2 minutes on the shaker and read within 90 minutes using Magpix® multiplex machine. Levels of biomarkers for Parkinson's and Alzheimer's disease were estimated using Magpix® multiplex machine.
(§3) For Parkinson's the percent modulation in each sample was determined as follows:
(§4) [{Concentration of biomarkers(pg/ml) in SEQ ID NO:1+MPP+Iodide treated cells)−Concentration of biomarkers(pg/ml) in Control cells(MPP+Iodide alone treated)}/Concentration of biomarkers(pg/ml) in Control cells(MPP+Iodide alone treated)]*100

Dopamine = assay: as above; conditions: MPP + Iodide (2 mM)
Description: as §1, §2, §3, §4

ICAM1/CD54 = assay: as above; conditions: MPP + Iodide (2 mM)
Description: as §1, §2, §3, §4

Park7/DJ-1 = assay: as above; conditions: MPP + Iodide (2 mM)
Description: as §1, §2, §3, §4

S100b = assay: as above; conditions: MPP + Iodide (2 mM)
Description: as §1, §2, §3, §4

Serotonin = assay: as above; conditions: MPP + Iodide (2 mM)
Description: as §1, §2, §3, §4

α-Synuclein = assay: as above; conditions: 0.001 μg/mL to 1 μg/mL, MPP+ iodide
Description: as §1, §2, §3, §4

B1: SEQ ID NO: 1: variant of the S. rolfsii lectin amino acid sequence (reported as Rec-2 in WO2010/095143) (protein)
chain: TYKITVRVYQTNPDAFFHPVEKTVWKYANGGTWTITDDQHVLTMGGSGTSGTLRFHADNGESFTATFGVHNYKRWCDIVTNLAADETGMVINQQYYSQKNREEARERQLSNYQVKNAKGRNFQIVYTEAEGNDLHANLIIG
- % Apoptotic cells (SubG0/G1) (SH-SY5Y neuronal cells; 0.001 μg/mL): 2.7%
- % Decrease in Apoptotic cells (wrt MPP + iodide) (SH-SY5Y neuronal cells; 0.001 μg/mL): 18.8%
- % Apoptotic cells (SubG0/G1) (SH-SY5Y neuronal cells; 0.01 μg/mL): 2.2%
- % Decrease in Apoptotic cells (wrt MPP + iodide) (SH-SY5Y neuronal cells; 0.01 μg/mL): 33.5%
- % Apoptotic cells (SubG0/G1) (SH-SY5Y neuronal cells; 0.05 μg/mL): 2.4%
- % Decrease in Apoptotic cells (wrt MPP + iodide) (SH-SY5Y neuronal cells; 0.05 μg/mL): 29.9%
- % Apoptotic cells (SubG0/G1) (SH-SY5Y neuronal cells; 0.1 μg/mL): 2.4%
- % Decrease in Apoptotic cells (wrt MPP + iodide) (SH-SY5Y neuronal cells; 0.1 μg/mL): 27.7%
- % Apoptotic cells (SubG0/G1) (SH-SY5Y neuronal cells; 1 μg/mL): 2.2%
- % Decrease in Apoptotic cells (wrt MPP + iodide) (SH-SY5Y neuronal cells; 1 μg/mL): 35%
- % Change of Biomarkers markers (with respect to Control) Calbindin D (Calbindin D; 0.001 μg/mL): 9.7%
- % Change of Biomarkers markers (with respect to Control) Calbindin D (Calbindin D; 0.01 μg/mL): 8.2%
- % Change of Biomarkers markers (with respect to Control) Calbindin D (Calbindin D; 0.05 μg/mL): 1.7%
- % Change of Biomarkers markers (with respect to Control) Calbindin D (Calbindin D; 0.1 μg/mL): 6.6%
- % Change of Biomarkers markers (with respect to Control) Calbindin D (Calbindin D; 1 μg/mL): −1.6%
- % Change of Biomarkers markers (with respect to Control) Dopamine (Dopamine; 0.001 μg/mL): 50.6%
- % Change of Biomarkers markers (with respect to Control) Dopamine (Dopamine; 0.01 μg/mL): 82.5%
- % Change of Biomarkers markers (with respect to Control) Dopamine (Dopamine; 0.05 μg/mL): 24.7%
- % Change of Biomarkers markers (with respect to Control) Dopamine (Dopamine; 0.1 μg/mL): 28.9%
- % Change of Biomarkers markers (with respect to Control) Dopamine (Dopamine; 1 μg/mL): 22.9%
- % Change of Biomarkers markers (with respect to Control) ICAM1/CD54 (ICAM1/CD54; 0.001 μg/mL): 0%
- % Change of Biomarkers markers (with respect to Control) ICAM1/CD54 (ICAM1/CD54; 0.01 μg/mL): −6.2%
- % Change of Biomarkers markers (with respect to Control) ICAM1/CD54 (ICAM1/CD54; 0.05 μg/mL): −28.1%
- % Change of Biomarkers markers (with respect to Control) ICAM1/CD54 (ICAM1/CD54; 0.1 μg/mL): −36.3%
- % Change of Biomarkers markers (with respect to Control) ICAM1/CD54 (ICAM1/CD54; 1 μg/mL): −41.3%
- % Change of Biomarkers markers (with respect to Control) Park7/DJ-1 (Park7/DJ-1; 0.001 μg/mL): −2.5%
- % Change of Biomarkers markers (with respect to Control) Park7/DJ-1 (Park7/DJ-1; 0.01 μg/mL): −3.6%
- % Change of Biomarkers markers (with respect to Control) Park7/DJ-1 (Park7/DJ-1; 0.05 μg/mL): −7.1%
- % Change of Biomarkers markers (with respect to Control) Park7/DJ-1 (Park7/DJ-1; 0.1 μg/mL): −10.4%
- % Change of Biomarkers markers (with respect to Control) Park7/DJ-1 (Park7/DJ-1; 1 μg/mL): −12.6%
- % Change of Biomarkers markers (with respect to Control) S100b (S100b; 0.001 μg/mL): −11%
- % Change of Biomarkers markers (with respect to Control) S100b (S100b; 0.01 μg/mL): 9%
- % Change of Biomarkers markers (with respect to Control) S100b (S100b; 0.05 μg/mL): −6.7%
- % Change of Biomarkers markers (with respect to Control) S100b (S100b; 0.1 μg/mL): −6.5%
- % Change of Biomarkers markers (with respect to Control) S100b (S100b; 1 μg/mL): −11.4%
- % Change of Biomarkers markers (with respect to Control) Serotonin (Serotonin; 0.001 μg/mL): 15.4%
- % Change of Biomarkers markers (with respect to Control) Serotonin (Serotonin; 0.01 μg/mL): 5.1%
- % Change of Biomarkers markers (with respect to Control) Serotonin (Serotonin; 0.05 μg/mL): 6.9%
- % Change of Biomarkers markers (with respect to Control) Serotonin (Serotonin; 0.1 μg/mL): 7.9%
- % Change of Biomarkers markers (with respect to Control) Serotonin (Serotonin; 1 μg/mL): 23.5%
- modulation of α-Synuclein (α-Synuclein): no significant modulation
